{"source": "paper PMC10602602", "about": "“The apiosyltransferase celery UGT94AX1 catalyzes the biosynthesis of the flavone glycoside apiin” (Plant Physiology, 2023)", "proteins": {"B1": {"name": "AgApiT (UGT94AX1) (Apium graveolens) (protein)", "chain": "MGSENAKTRILMFPYLAYGHISPFVELAKQLTKRNFHIYLCSTPINLASVKKRADEDDNIQLLEFHLPSSPELPPRYHCSTGLPAELNPVLLRVFENAGPVFVDILKDIKPDLVIYDFMPSWPAQVALSLNIQVVYFSIFPVPMCCLPLHDSKRAGEKFPYQNVVIPQSPNRFALMASRNLLNCFEKTCKFALVKGLREVEGKYIDLLSDLADKDIIAVGPLVHVSMEKEDDKTKSILKWLDSKEKSSVVFVCFGSESYLSAEETIEMANALETTKCNFIWAMKFPQEKKDSVQLPDGFVERVGELGMILDGWVPQTMILGHPSTGVFLSHCGWSSVNESMKFGVPIIGMPMRYDLALIAKLVVEIGVGMEIVKNNQGKFDREGIVNVLRKVLEDGSEVKAKATELSLKINEKGEEDLDKAAEELMQICRNKKEIQG", "notes": "full ORF, codon-optimized synthetic gene, pCold ProS2, E. coli BL21(DE3); His/ProS2 tag cut off with HRV3C protease; 49 kDa"}, "B2": {"name": "AgApiT (UGT94AX1) (Apium graveolens; L356Q) (protein)", "chain": "B1 chain with L356Q", "notes": "as for B1"}, "B3": {"name": "AgApiT (UGT94AX1) (Apium graveolens; I139V) (protein)", "chain": "B1 chain with I139V", "notes": "as for B1"}}, "note": "Substitutions are numbered along the chain they refer to. Names may count otherwise.", "data": [{"substrate": "O=c1cc(-c2ccc(O)cc2)oc2cc(O[C@@H]3O[C@H](CO)[C@@H](O)[C@H](O)[C@H]3O)cc(O)c12", "assay": "reversed-phase HPLC glycosyltransferase assay, Michaelis-Menten nonlinear fit", "type": "biochemical, Apium graveolens", "details": "donor UDP-Api, 200 mM Tris-HCl, 50 mM NaCl, pH 7.0, 23 °C", "description": "(§1) reversed-phase HPLC glycosyltransferase assay, Michaelis-Menten nonlinear fit on AgApiT (UGT94AX1)", "units": {"Km": "µM", "kcat": "s⁻¹", "kcat/Km": "M⁻¹ s⁻¹"}, "values": [{"protein": "B1", "Km": "15 ± 3", "kcat": "0.00088 ± 5e-05", "kcat/Km": "58 ± 15"}, {"protein": "B2", "Km": "52 ± 9", "kcat": "0.00021 ± 2e-05", "kcat/Km": "2.1 ± 0.3"}, {"protein": "B3", "Km": "17 ± 1", "kcat": "0.00083 ± 7e-05", "kcat/Km": "50 ± 18"}]}, {"substrate": "O=c1ccn([C@@H]2O[C@H](COP(=O)(O)OP(=O)(O)O[C@H]3OC[C@](O)(CO)[C@H]3O)[C@@H](O)[C@H]2O)c(=O)[nH]1", "assay": "reversed-phase HPLC glycosyltransferase assay, Michaelis-Menten nonlinear fit", "type": "biochemical, Apium graveolens", "details": "acceptor apigenin 7-O-glucoside, 200 mM Tris-HCl, 50 mM NaCl, pH 7.0, 23 °C", "description": "as §1", "units": {"Km": "µM", "kcat": "s⁻¹", "kcat/Km": "M⁻¹ s⁻¹"}, "values": [{"protein": "B1", "Km": "8.6 ± 0.6", "kcat": "0.00065 ± 1e-05", "kcat/Km": "76 ± 6"}, {"protein": "B2", "Km": "390 ± 60", "kcat": "0.00014 ± 1e-05", "kcat/Km": "0.36 ± 0.08"}, {"protein": "B3", "Km": "17 ± 1", "kcat": "0.00047 ± 1e-05", "kcat/Km": "28 ± 3"}]}]}
